The supplement of paper PMC6757056
± gives the standard deviation of the averaged measurements.

B1: library; a variant is named by its letters at N, in order (parent)
chain: GCUGUCACCGGUGCUUGGUACGUUAUAUUCAGCCGGUCUGAUGAGUCUNNNNNNAGACGAAACAGC

Key:
(6R,S)-folinic acid [1] = variants of: B1; assay: normalized RNA/DNA level without ligand (relative to sTRSVctl = 100) (log10 (% of sTRSVctl)); HEK293T overexpressing SLC46A1; higher = less ribozyme self-cleavage, higher mRNA level; conditions: without (6R,S)-folinic acid; ligand present: no
Outline: (§1)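 RNA level was computed as RNA reads over DNA reads divided by a spiked-in non-cleaving sequence or by the top sequences, then scaled and log-transformed. Scaling was ×100 with log10, the top group was 25 sequences, and the threshold was ≥100 DNA reads. The reads came from HEK293T cells transfected at 4 µg per 6-well well with ribozyme switch library plasmids (mCherry, or eGFP in some ligand experiments). Total RNA was extracted with EDTA 72 h after transfection, with any ligand added 1 h before it.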

(6R,S)-folinic acid [2] = variants of: B1; assay: normalized RNA/DNA level with ligand (relative to sTRSVctl = 100) (log10 (% of sTRSVctl)); HEK293T overexpressing SLC46A1; ligand concentration (+) RNA-Seq: 6 mM; higher = less ribozyme self-cleavage, higher mRNA level; conditions: with (6R,S)-folinic acid; ligand present: yes
Outline: as §1

| Variant | normalized RNA/DNA level without ligand (log10) ((6R,S)-folinic acid [1]) | normalized RNA/DNA level with ligand (log10) ((6R,S)-folinic acid [2]) |
| --- | --- | --- |
| GCUGUCACCGGUGCUUGGUACGUUAUAUUCAGCCGGUCUGAUGAGUCUCCUUGCAGACGAAACAGC [CCUUGC] | 2.004 ± 0.0087 | 2.05 ± 0.039 |
| GCUGUCACCGGUGCUUGGUACGUUAUAUUCAGCCGGUCUGAUGAGUCUCCUUGGAGACGAAACAGC [CCUUGG] | 2.047 ± 0.016 | 2.01 ± 0.022 |
| GCUGUCACCGGUGCUUGGUACGUUAUAUUCAGCCGGUCUGAUGAGUCUCCUUGAAGACGAAACAGC [CCUUGA] | 2.017 ± 0.0066 | 2.03 ± 0.027 |
| GCUGUCACCGGUGCUUGGUACGUUAUAUUCAGCCGGUCUGAUGAGUCUCCUUGUAGACGAAACAGC [CCUUGU] | 2.01 ± 0.04 | 2.005 ± 0.013 |
| GCUGUCACCGGUGCUUGGUACGUUAUAUUCAGCCGGUCUGAUGAGUCUGCUUGUAGACGAAACAGC [GCUUGU] | 2.004 ± 0.017 | 2.04 ± 0.058 |
| GCUGUCACCGGUGCUUGGUACGUUAUAUUCAGCCGGUCUGAUGAGUCUGCUUGCAGACGAAACAGC [GCUUGC] | 2.052 ± 0.01 | 2.01 ± 0.022 |
| GCUGUCACCGGUGCUUGGUACGUUAUAUUCAGCCGGUCUGAUGAGUCUGCUUGAAGACGAAACAGC [GCUUGA] | 1.999 ± 0.0031 | 2.024 ± 0.018 |
| GCUGUCACCGGUGCUUGGUACGUUAUAUUCAGCCGGUCUGAUGAGUCUGCUUGGAGACGAAACAGC [GCUUGG] | 1.932 ± 0.015 | 2.02 ± 0.028 |
| GCUGUCACCGGUGCUUGGUACGUUAUAUUCAGCCGGUCUGAUGAGUCUAGAAAAAGACGAAACAGC [AGAAAA] | 1.984 ± 0.0076 | 2 ± 0.034 |
| GCUGUCACCGGUGCUUGGUACGUUAUAUUCAGCCGGUCUGAUGAGUCUAGAAACAGACGAAACAGC [AGAAAC] | 2.0013 ± 0.00088 | 2.01 ± 0.026 |
| GCUGUCACCGGUGCUUGGUACGUUAUAUUCAGCCGGUCUGAUGAGUCUGCUUUUAGACGAAACAGC [GCUUUU] | 2.01 ± 0.047 | 2.02 ± 0.035 |
| GCUGUCACCGGUGCUUGGUACGUUAUAUUCAGCCGGUCUGAUGAGUCUGCUUUCAGACGAAACAGC [GCUUUC] | 2.0144 ± 0.0002 | 2.01 ± 0.029 |
| GCUGUCACCGGUGCUUGGUACGUUAUAUUCAGCCGGUCUGAUGAGUCUGCUUUGAGACGAAACAGC [GCUUUG] | 1.995 ± 0.015 | 2.02 ± 0.053 |
| GCUGUCACCGGUGCUUGGUACGUUAUAUUCAGCCGGUCUGAUGAGUCUUCUUUCAGACGAAACAGC [UCUUUC] | 2.017 ± 0.0074 | 1.996 ± 0.0066 |
| GCUGUCACCGGUGCUUGGUACGUUAUAUUCAGCCGGUCUGAUGAGUCUUCUUUGAGACGAAACAGC [UCUUUG] | 1.81 ± 0.031 | 1.952 ± 0.019 |
| GCUGUCACCGGUGCUUGGUACGUUAUAUUCAGCCGGUCUGAUGAGUCUUCUUUAAGACGAAACAGC [UCUUUA] | 2.001 ± 0.0056 | 2 ± 0.015 |
| GCUGUCACCGGUGCUUGGUACGUUAUAUUCAGCCGGUCUGAUGAGUCUACUUCGAGACGAAACAGC [ACUUCG] | 1.968 ± 0.0047 | 2.02 ± 0.029 |
| GCUGUCACCGGUGCUUGGUACGUUAUAUUCAGCCGGUCUGAUGAGUCUACUUCUAGACGAAACAGC [ACUUCU] | 2.031 ± 0.0021 | 1.99 ± 0.059 |
| GCUGUCACCGGUGCUUGGUACGUUAUAUUCAGCCGGUCUGAUGAGUCUACUUCAAGACGAAACAGC [ACUUCA] | 2.01 ± 0.03 | 2 ± 0.04 |
| GCUGUCACCGGUGCUUGGUACGUUAUAUUCAGCCGGUCUGAUGAGUCUACUUCCAGACGAAACAGC [ACUUCC] | 2.058 ± 0.009 | 2.0589 ± 0.002 |
| GCUGUCACCGGUGCUUGGUACGUUAUAUUCAGCCGGUCUGAUGAGUCUUCUUCUAGACGAAACAGC [UCUUCU] | 2.064 ± 0.0051 | 2.095 ± 0.011 |

| Variant | normalized RNA/DNA level without ligand (log10) ((6R,S)-folinic acid [1]) | normalized RNA/DNA level with ligand (log10) ((6R,S)-folinic acid [2]) |
| --- | --- | --- |
| GCUGUCACCGGUGCUUGGUACGUUAUAUUCAGCCGGUCUGAUGAGUCUUCUUCCAGACGAAACAGC [UCUUCC] | 2.026 ± 0.018 | 2.043 ± 0.018 |
| GCUGUCACCGGUGCUUGGUACGUUAUAUUCAGCCGGUCUGAUGAGUCUUCUUCGAGACGAAACAGC [UCUUCG] | 1.91 ± 0.02 | 2.0469 ± 0.0016 |
| GCUGUCACCGGUGCUUGGUACGUUAUAUUCAGCCGGUCUGAUGAGUCUUCUUGAAGACGAAACAGC [UCUUGA] | 1.987 ± 0.0069 | 2.025 ± 0.006 |
| GCUGUCACCGGUGCUUGGUACGUUAUAUUCAGCCGGUCUGAUGAGUCUUCUUGUAGACGAAACAGC [UCUUGU] | 1.976 ± 0.014 | 2.02 ± 0.051 |
| GCUGUCACCGGUGCUUGGUACGUUAUAUUCAGCCGGUCUGAUGAGUCUGCUUCCAGACGAAACAGC [GCUUCC] | 2.029 ± 0.0087 | 2.04 ± 0.034 |
| GCUGUCACCGGUGCUUGGUACGUUAUAUUCAGCCGGUCUGAUGAGUCUGCUUCGAGACGAAACAGC [GCUUCG] | 2.024 ± 0.015 | 2.02 ± 0.025 |
| GCUGUCACCGGUGCUUGGUACGUUAUAUUCAGCCGGUCUGAUGAGUCUGCUUCUAGACGAAACAGC [GCUUCU] | 2.0037 ± 0.0006 | 2.01 ± 0.048 |
| GCUGUCACCGGUGCUUGGUACGUUAUAUUCAGCCGGUCUGAUGAGUCUCCUUCCAGACGAAACAGC [CCUUCC] | 2.067 ± 0.019 | 2.01 ± 0.024 |
| GCUGUCACCGGUGCUUGGUACGUUAUAUUCAGCCGGUCUGAUGAGUCUCCUUCUAGACGAAACAGC [CCUUCU] | 2.01 ± 0.024 | 2.02 ± 0.041 |
| GCUGUCACCGGUGCUUGGUACGUUAUAUUCAGCCGGUCUGAUGAGUCUCCUUCGAGACGAAACAGC [CCUUCG] | 2.017 ± 0.019 | 2.045 ± 0.012 |
| GCUGUCACCGGUGCUUGGUACGUUAUAUUCAGCCGGUCUGAUGAGUCUCCUUUGAGACGAAACAGC [CCUUUG] | 2.039 ± 0.017 | 2.01 ± 0.067 |
| GCUGUCACCGGUGCUUGGUACGUUAUAUUCAGCCGGUCUGAUGAGUCUCCUUUCAGACGAAACAGC [CCUUUC] | 2.062 ± 0.0044 | 2.01 ± 0.053 |
| GCUGUCACCGGUGCUUGGUACGUUAUAUUCAGCCGGUCUGAUGAGUCUCCUUUUAGACGAAACAGC [CCUUUU] | 2.031 ± 0.0026 | 2 ± 0.027 |
| GCUGUCACCGGUGCUUGGUACGUUAUAUUCAGCCGGUCUGAUGAGUCUCGAAACAGACGAAACAGC [CGAAAC] | 1.985 ± 0.0043 | 1.99 ± 0.04 |
| GCUGUCACCGGUGCUUGGUACGUUAUAUUCAGCCGGUCUGAUGAGUCUACUUGAAGACGAAACAGC [ACUUGA] | 1.9759 ± 0.0013 | 2.03 ± 0.041 |
| GCUGUCACCGGUGCUUGGUACGUUAUAUUCAGCCGGUCUGAUGAGUCUACUUGCAGACGAAACAGC [ACUUGC] | 2.036 ± 0.0029 | 2.03 ± 0.03 |
| GCUGUCACCGGUGCUUGGUACGUUAUAUUCAGCCGGUCUGAUGAGUCUACUUGUAGACGAAACAGC [ACUUGU] | 2.062 ± 0.011 | 2.064 ± 0.013 |
| GCUGUCACCGGUGCUUGGUACGUUAUAUUCAGCCGGUCUGAUGAGUCUACUUUUAGACGAAACAGC [ACUUUU] | 2.037 ± 0.012 | 2 ± 0.038 |
| GCUGUCACCGGUGCUUGGUACGUUAUAUUCAGCCGGUCUGAUGAGUCUACUUUCAGACGAAACAGC [ACUUUC] | 2.041 ± 0.0054 | 2.05 ± 0.038 |
| GCUGUCACCGGUGCUUGGUACGUUAUAUUCAGCCGGUCUGAUGAGUCUACUUUGAGACGAAACAGC [ACUUUG] | 1.94 ± 0.043 | 2.001 ± 0.015 |
